Experimental data reported in patent publication US20260137779A1.

Tests used:
[1] = biological target: human CD3 on T (Jurkat) cells (human) (UniProt P07766); assay: flow cytometry; PerCP-anti-hCD3e (OKT3) staining of Jurkat cells; supernatant of GFP-transfected 293T cells, no competitor
[2] = biological target: human CD3 on T (Jurkat) cells (human) (UniProt P07766); assay: flow cytometry; PerCP-anti-hCD3e (OKT3) staining of Jurkat cells; supernatant of untransfected 293T cells (same control values as in paragraph 403)
[3] = biological target: human CD3 on T (Jurkat) cells (human) (UniProt P07766); assay: flow cytometry; PerCP-anti-hCD3e (OKT3) staining of Jurkat cells; supernatant of vector #1323, which lacks a secretion peptide (dimert not secreted)
[4] = biological target: human CD3 on T (Jurkat) cells (human) (UniProt P07766); assay: flow cytometry; PerCP-anti-hCD3e (OKT3) staining of Jurkat cells; media alone, no competitor
[5] = biological target: human CD3 on T (Jurkat) cells (human) (UniProt P07766); assay: flow cytometry; PerCP-anti-hCD3e (OKT3) staining of Jurkat cells; supernatant of untransfected 293T cells, no competitor
[6] = biological target: human CD3 on T (Jurkat) cells (human) (UniProt P07766); assay: flow cytometry; PerCP-anti-hCD3e (OKT3) staining of Jurkat cells; supernatant of vector #1104, which lacks a secretion peptide (dimert not secreted)
[7] = biological target: human CD3 on T (Jurkat) cells (human) (UniProt P07766); assay: flow cytometry; PerCP-anti-hCD3e (OKT3) staining of Jurkat cells; media alone, no competitor (same control values as in paragraph 403)
[8] = biological target: human CD3 on T (Jurkat) cells (human) (UniProt P07766); assay: flow cytometry; PerCP-anti-hCD3e (OKT3) staining of Jurkat cells; supernatant of GFP-transfected 293T cells (same control values as in paragraph 403)

PerCP-anti-hCD3e antibody (#OKT3)
% CD3 positive (Q2+Q3) [1]: 78.7%
% CD3 positive (Q2+Q3) [2]: 79.2%
% CD3 positive (Q2+Q3) [3]: 79.4%
% CD3 positive (Q2+Q3) [4]: 77.6%
% CD3 positive (Q2+Q3) [5]: 79.2%
% CD3 positive (Q2+Q3) [6]: 77.7%
% CD3 positive (Q2+Q3) [7]: 77.6%
% CD3 positive (Q2+Q3) [8]: 78.7%
